The text below walks through data of patent US20230303685A1 (ELECTRA THERAPEUTICS, published 2023).

In assay [1] the target is T1, human SIRPα V1-His monomer (human, UniProt P78324 31-373, limits assumed).
T1 construct: 'SIRP-His monomer protein' of the Octet assay; also called SIRP-His; not shown: His tag
Put plainly: BLI (Octet); antibody on anti-mouse IgG capture tip, SIRP-His monomer at 100, 33.3, 11.1 nM, 1:1 fit, mean KD. On the procedure: (§1) Select SIRP antibodies were tested for their affinities to human SIRPα, SIRPβ1, and SIRPγ using a biolayer interferometry (BLI) Octet system (Pall ForteBio). Each SIRP antibody with rat or mouse Fc was immobilized on a biosensor tip by an anti-mouse IgG capture (AMC). Antibodies with human Fc were digested with gingipain K enzyme to yield monomeric F(ab′), biotinylated, then coated onto streptavidin biosensors. […] The biosensors were then exposed to wash buffer to measure off-rate kinetics. The resulting kinetic data were analyzed and fitted using a 1:1 binding model with kₒₙ and kdis fitted separately at each SIRP-His protein concentration. KD affinities were calculated as kdis to kₒₙ ratio at each concentration of SIRP-His and averaged.
(Biolayer interferometry detects binding as a change in optical thickness at a sensor tip.)

Another assay concerns the target T2, human SIRPβ1-His monomer (human, UniProt O00241 30-371).
T2 construct: 'SIRP-His monomer protein' of the Octet assay; also called SIRP-His; not shown: His tag
The assay is described as above. On the procedure: as §1

A further assay has as its target T3, human SIRPγ-His monomer (human).
T3 construct: 'SIRP-His monomer protein' of the Octet assay; also called SIRP-His; not shown: His tag
The assay is described as above. On the procedure:
as §1

The target of a further assay is T4, Human SIRPβ1/DAP12 CHO.
T4 construct: also called human SIRPβ1 on CHO cells co-transfected with DAP12; copies: 1 + 2
T4 sequence (DAP12, as listed by the source limits assumed): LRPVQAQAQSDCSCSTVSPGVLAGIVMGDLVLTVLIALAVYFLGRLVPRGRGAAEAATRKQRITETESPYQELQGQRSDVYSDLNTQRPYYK
As to the kind of experiment: flow cytometry, stably transfected CHO cells, antibody titrated, labelled anti-rat or anti-mouse IgG, MFI. On the procedure: (§2) Selected antibodies were tested for binding to stably transfected human SIRPα, SIRPβ1 (co-transfected with DAP12), or SIRPγ Chinese hamster ovary (CHO) cells via flow cytometry. A titration of SIRP antibodies was added to the cells and detected using a fluorescently labelled secondary antibody. Graph depicts the median fluorescence intensity (MFI) at each concentration.
(In general: In flow cytometry, cells or beads pass a laser one at a time.)

The target of assay [2] is T5, Human SIRPγ CHO.
T5 construct: also called human SIRPγ on CHO cells
T5 chain: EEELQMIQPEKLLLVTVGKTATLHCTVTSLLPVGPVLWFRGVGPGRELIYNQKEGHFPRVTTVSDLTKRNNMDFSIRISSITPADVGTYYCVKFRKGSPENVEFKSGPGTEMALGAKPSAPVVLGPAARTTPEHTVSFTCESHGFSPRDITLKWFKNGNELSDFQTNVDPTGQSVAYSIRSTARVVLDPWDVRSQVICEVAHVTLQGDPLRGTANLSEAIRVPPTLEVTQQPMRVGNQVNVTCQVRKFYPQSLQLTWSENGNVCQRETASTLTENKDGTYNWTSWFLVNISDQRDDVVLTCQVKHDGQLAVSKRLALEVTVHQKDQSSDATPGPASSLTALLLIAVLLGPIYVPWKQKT
The description is as above. On the procedure:
as §2

Assay [3] concerns the target T6, human SIRPα V1 extracellular domain, monomeric (human, UniProt P78324 31-373).
T6 construct: also called hSIRPα V1
Put plainly: ELISA, extracellular domain coated at 1 µg/mL, purified antibody titrated, anti-rat IgG, chemiluminescence. On the procedure: (§3) Select SIRP antibodies were purified by Protein G from hybridoma supernatants and analyzed in a titration via ELISA. Briefly, 1 μg/mL of extracellular domain SIRPα was coated onto high protein-binding plates and blocked. Purified antibodies were added in a titration to the coated plates. The antibodies were detected by an anti-rat IgG antibody and a chemiluminescent substrate.

Another assay has as its target T7, Human SIRPβ1.
T7 construct: also called human SIRPβ1 extracellular domain, plate-coated
T7 chain: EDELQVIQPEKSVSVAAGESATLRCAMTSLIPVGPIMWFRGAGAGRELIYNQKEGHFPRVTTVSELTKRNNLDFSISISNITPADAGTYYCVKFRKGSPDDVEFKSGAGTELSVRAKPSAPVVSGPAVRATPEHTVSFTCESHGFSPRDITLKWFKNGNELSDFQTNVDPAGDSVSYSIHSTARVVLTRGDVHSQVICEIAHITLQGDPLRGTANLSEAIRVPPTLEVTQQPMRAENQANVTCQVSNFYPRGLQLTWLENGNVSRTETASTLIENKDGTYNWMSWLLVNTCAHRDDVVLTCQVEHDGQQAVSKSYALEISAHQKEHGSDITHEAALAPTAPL
As to the kind of experiment: ELISA, extracellular domain coated at 2 µg/mL, purified antibody titrated, anti-rat or anti-mouse IgG, chemiluminescence. On the procedure:
(§4) Select SIRP antibodies were purified by Protein G from hybridoma supernatants and analyzed in a titration via ELISA. Briefly, 2 μg/mL of extracellular domain of each of the SIRPs was coated onto high protein-binding plates and blocked. Purified antibodies were added in a titration to the coated plates. The antibodies were detected by an anti-rat IgG or an anti-mouse IgG antibody and a chemiluminescent substrate.
(An ELISA detects its analyte on a solid surface through an enzyme-linked reagent.)

The target in assay [4] is T8, Human SIRPγ.
T8 construct: also called human SIRPγ extracellular domain, plate-coated
T8 chain: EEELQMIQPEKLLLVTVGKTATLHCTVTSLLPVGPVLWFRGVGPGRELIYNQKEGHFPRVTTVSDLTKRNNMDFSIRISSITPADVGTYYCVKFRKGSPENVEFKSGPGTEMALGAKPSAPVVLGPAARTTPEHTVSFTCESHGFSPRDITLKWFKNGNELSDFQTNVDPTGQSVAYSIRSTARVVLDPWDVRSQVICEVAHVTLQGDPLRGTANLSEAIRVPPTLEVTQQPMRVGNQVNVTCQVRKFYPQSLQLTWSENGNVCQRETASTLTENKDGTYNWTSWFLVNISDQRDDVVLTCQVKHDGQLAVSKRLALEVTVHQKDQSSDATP
The description is as above. On the procedure:
as §4

The target in assay [5] is T9, Human SIRPγ conjugated to an Fc region (human).
T9 construct: also called SIRPγ-Fc; SIRP-Fc; not shown: Fc region
Put plainly: BLI blocking; 200 nM antibody pre-incubated with 20 nM SIRPγ-Fc, binding to immobilised CD47-His (competitor), % of response of SIRPγ-Fc alone.

Assay [6] deals with T5, Human SIRPγ CHO. Put plainly: flow cytometry, stably transfected CHO cells, antibody titrated, labelled anti-human IgG, MFI. On the procedure: as §2
The target in assay [7] is T6, human SIRPα V1 extracellular domain, …. As to the kind of experiment: SPR (Biacore); antibody captured by anti-IgG on chip, monomeric SIRPα extracellular domain as analyte, 1:1 model. On the procedure: (§5) Selected antibodies were tested for their affinities to two hSIRPα variants (V1 and V2), and to cynomolgus monkey (herein referred to as “cyno”) SIRPα. The affinities of these SIRP antibodies were determined using surface plasmon resonance. The SIRP antibodies were flowed onto a chip and captured by an anti-mouse IgG or an anti-human IgG covalently coupled to the surface of the chip. A three-point titration of the extracellular binding domain of hSIRPα was performed per the manufacturer's recommended protocols.

Assay [8] concerns the target T10, human SIRPα V2 extracellular domain, monomeric (human, UniProt P78324 31-370).
T10 construct: also called hSIRPα V2
Described as above. On the procedure: as §5

The target of assay [9] is T11, cynomolgus monkey SIRPα extracellular domain, monomeric (cynomolgus monkey, UniProt A0A2K5VYQ9 31-372).
T11 construct: extracellular domain; also called Cyno SIRPα
The description is as above. On the procedure: as §5

Assay [10] concerns the target T8, Human SIRPγ. Put plainly: ELISA, extracellular domain coated at 1 µg/mL, purified antibody titrated, anti-human IgG, chemiluminescence. On the procedure:
as §3
FIGS. 3A-3C show binding curves of SIRP antibodies and two isotype controls with human Fc to human SIRPα V1, human SIRPβ1, human SIRPγ and cynomolgus monkey SIRPα by ELISA. […] Isotype control 1 was an unrelated human IgG1 antibody with irrelevant CDRs. Isotype control 2 was the same as isotype control 1 but contained the same amino acid substitutions in the Fc region as some of the selected SIRP antibodies for increased FcγR binding (referring to Table 11). DNA was transiently transfected into CHO cells for 7 days. Antibodies were purified by Protein A from cell supernatants and analyzed in a titration via ELISA as previously described in FIGS. 2A-2B using an anti-human IgG antibody as the detection antibody.

Assay [11] deals with T11, cynomolgus monkey SIRPα extracellular …. As to the kind of experiment: ELISA, extracellular domain coated at 2 µg/mL, purified antibody titrated, anti-rat or anti-mouse IgG, chemiluminescence. On the procedure:
as §4

In a further assay the target is T12, Cynomolgus Monkey SIRPγ (Macaca fascicularis).
T12 construct: extracellular domain; also called cyno SIRPγ extracellular domain, plate-coated
The assay is described as above. On the procedure:
as §4

In assay [12] the target is T6, human SIRPα V1 extracellular domain, …. Described as above. On the procedure: as §4

B1: Antibody 11 (antibody, V domains shown)
VH: EVQLVESGGGLVQPGGSLRLSCAASGFTFSSYWMHWVRQAPGKGLVWVSRIHNDGSRTSYADSVKGRFTISRDNAKNTLYLQMSSLRAEDTAVYYCTRDPPPYDILTGYPFDYWGQGTLVTVSS
VL: DIQMTQSPSSVSASVGDRVTITCRASQDISSWLAWFQQKPGKAPKLLIYGASSLQSGVPSRFSGSGSGTDFTLTISSLQPEDFATYYCQEANSFPYTFGQGTKLEIK
notes: Human variable region, rat IgG2b Fc; from hybridoma
The term Kd denotes a measure of binding affinity in units of concentration. Broadly, the EC50 (read off the curve) is the midpoint of the concentration-response curve. Consider B1, for which the Kd in assay [1] was determined as 3.74 nM; with human SIRPβ1-His monomer, 61.9 nM; in the assay with human SIRPγ-His monomer it was 13.3 nM. Also, the binding result with Human SIRPβ1/DAP12 CHO, in the assay with Human SIRPγ CHO [2], with Human SIRPβ1 and with Human SIRPγ [4] was “binds” in each case. Besides, in assay [3], the “EC50 (read off the curve)” value is roughly 0.1 µg/mL. Moreover, in assay [5], the “SIRPγ-CD47 Response (%)” value is -3.8%.

B2: Antibody 25 (antibody, V domains shown)
VH: EVQMLESGGGLVQPGGSLRLSCAASGFTFSSYAMSWVRQAPGKGLEWVSAISGSGSSTHYADSVKGRFTISRDNSKNTLYLQMNSLRAEDTAVYYCAAYSGSYYYYGMDVWGQGTTVTVSS
VL: EIVMTQSPATLSVSPGERATLSCRASQSVSRNLAWYQQKSGQAPRLLIYGASTRATGIPARFSGSGSGTEFTLTISSLQSEDFAGYYCQQYNNWPYTFGQGTKLEIK
notes: Variable regions of Antibody 13
Take B2: the “EC50 (read off the curve)” value with Human SIRPγ CHO [6] was roughly 0.7 µg/mL; in the assay with Human SIRPγ [10] it was roughly 0.04 µg/mL. The results for the Kd in assay [7], in assay [8] and in assay [9] were 11.4 nM, 9.09 nM and 12.6 nM, respectively.

B3: Antibody 15 (antibody, V domains shown)
VH: QIQLVQSGPELKKPGETVKISCKGSGYTFRNFGMNWVKQAPGMGLKWMVWIDTNTGEPTYAEEFKGRFAFSLETSASTAYLQINNLKNEDTATYFCARSRGNYFAMEYWGQGTSVTVSS
VL: DIKMTQSPSSMYASLGERVTVTCKASQDINRYLSWFQQKPGKSPKTLIYRANRLVDGVPSRFSGSGSGQDYSLTISSLEYEDMGFYYCLQYDEFPFTFGSGTKLEIK
notes: Mouse variable region, mouse IgG2a Fc; from hybridoma
For B3, the Kd in assay [1] turned out to be 0.244 nM; with human SIRPγ-His monomer it was 54.4 nM. The binding result with Human SIRPβ1/DAP12 CHO and in the assay with Human SIRPβ1 was “binds” each time. Further, the “EC50 (read off the curve)” value with Human SIRPγ CHO [2] is roughly 2 µg/mL; with Human SIRPγ [4] it was roughly 0.2 µg/mL; in assay [11], roughly 0.1 µg/mL. Also, in assay [5], the “SIRPγ-CD47 Response (%)” value was found to be 129%.

B4: Antibody 8 (antibody, V domains shown)
VH: QVQLQQWGAGLLKPSETLSLTCAVYGGSFSGYYWSWIRQPPGKGLEWIGEINHSGSTNFNPSLKSRVTISVDTSKNQFSLKLRSVTAADTAVYYCSRVDSGSYPYYDGLDVWGQGTTVTVSS
VL: SSELTQPPSVSVSPGQTASITCSGDKLGDKYVYWYQQKPGQSPVLVIYHDDRRPAGIPERFAGSASGNTATLTISGTQAMDEADYYCQTWDSSTVVFGGGTKLTVL
notes: as for B1
As for B4, the Kd in assay [1] amounted to 46.6 nM; in the assay with human SIRPβ1-His monomer, 78.9 nM; with human SIRPγ-His monomer it was 50 nM. In addition, the binding result with Human SIRPβ1/DAP12 CHO and with Human SIRPγ CHO [2] was “binds” each time. Further, the “EC50 (read off the curve)” value is roughly 0.03 µg/mL in the assay with Cynomolgus Monkey SIRPγ, roughly 0.02 µg/mL in the assay with Human SIRPβ1, roughly 0.02 µg/mL in the assay with Human SIRPγ [4] and roughly 0.03 µg/mL in [12]. Also, the “SIRPγ-CD47 Response (%)” value in [5] was -4.94%.
